Experimental data reported in IntAct's records for PubMed 22632968.
One block for each substance: values may come before it.

Columns and labels:
[1] = target: sun1_human SUN1 (UniProt O94901)
[2] = target: sun2_human SUN2 (UniProt Q9UH99)
[3] = target: sun1_human SUN1 (UniProt O94901); remark: listed apart in the source
[4] = target: sun2_human SUN2 (UniProt Q9UH99); remark: listed apart in the source
[5] = target: sun2_human SUN2 (UniProt Q9UH99); remark: listed apart in the source
[6] = target: sun1_human SUN1 (UniProt O94901); remark: listed apart in the source
[7] = target: sun2_human SUN2 (UniProt Q9UH99); remark: listed apart in the source

Sequence of sun1_human SUN1 (O94901 whole entry): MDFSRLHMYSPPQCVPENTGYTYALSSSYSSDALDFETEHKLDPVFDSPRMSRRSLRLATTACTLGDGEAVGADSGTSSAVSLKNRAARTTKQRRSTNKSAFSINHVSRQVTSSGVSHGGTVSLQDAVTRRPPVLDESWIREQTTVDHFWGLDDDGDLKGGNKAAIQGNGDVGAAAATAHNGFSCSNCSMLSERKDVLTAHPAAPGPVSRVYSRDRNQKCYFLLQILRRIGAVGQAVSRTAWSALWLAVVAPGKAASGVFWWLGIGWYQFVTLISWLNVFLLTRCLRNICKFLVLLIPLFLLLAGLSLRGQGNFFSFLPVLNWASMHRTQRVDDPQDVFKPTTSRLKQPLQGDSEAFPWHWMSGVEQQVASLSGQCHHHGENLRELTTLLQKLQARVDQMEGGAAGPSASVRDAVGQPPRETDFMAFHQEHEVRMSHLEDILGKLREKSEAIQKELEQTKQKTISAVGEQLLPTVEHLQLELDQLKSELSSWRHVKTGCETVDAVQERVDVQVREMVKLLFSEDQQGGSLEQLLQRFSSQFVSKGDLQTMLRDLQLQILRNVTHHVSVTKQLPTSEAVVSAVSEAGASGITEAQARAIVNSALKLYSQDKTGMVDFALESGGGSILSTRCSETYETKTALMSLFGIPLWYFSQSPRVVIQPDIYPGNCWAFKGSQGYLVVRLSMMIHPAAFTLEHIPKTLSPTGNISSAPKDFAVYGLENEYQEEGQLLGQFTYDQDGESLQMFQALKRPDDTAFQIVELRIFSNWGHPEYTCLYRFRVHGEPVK
Sequence of sun2_human SUN2 (Q9UH99 whole entry): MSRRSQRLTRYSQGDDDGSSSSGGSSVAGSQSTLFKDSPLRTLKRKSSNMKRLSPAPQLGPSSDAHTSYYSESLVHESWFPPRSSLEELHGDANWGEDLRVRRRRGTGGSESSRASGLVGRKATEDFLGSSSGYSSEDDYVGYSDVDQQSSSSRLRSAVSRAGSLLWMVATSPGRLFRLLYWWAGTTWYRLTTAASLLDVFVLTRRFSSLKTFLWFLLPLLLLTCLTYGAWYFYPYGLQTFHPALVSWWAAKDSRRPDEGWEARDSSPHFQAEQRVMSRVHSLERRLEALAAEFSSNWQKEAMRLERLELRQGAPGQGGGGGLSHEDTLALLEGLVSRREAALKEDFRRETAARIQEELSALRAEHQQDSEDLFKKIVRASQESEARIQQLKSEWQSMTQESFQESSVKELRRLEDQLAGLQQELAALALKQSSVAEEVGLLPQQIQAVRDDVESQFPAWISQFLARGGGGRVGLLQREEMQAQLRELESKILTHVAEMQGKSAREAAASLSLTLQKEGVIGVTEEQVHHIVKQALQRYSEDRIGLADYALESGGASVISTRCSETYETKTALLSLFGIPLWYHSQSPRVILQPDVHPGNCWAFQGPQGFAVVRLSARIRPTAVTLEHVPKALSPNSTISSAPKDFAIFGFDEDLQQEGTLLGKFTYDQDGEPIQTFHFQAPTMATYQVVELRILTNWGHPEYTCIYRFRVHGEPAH

effect of a mutation on the interaction [1]: disrupting interaction
effect of a mutation on the interaction [2]: decreasing interaction strength
effect of a mutation on the interaction [3]: disrupting interaction strength
effect of a mutation on the interaction [4]: disrupting interaction strength
Substance: Nesprin-1 (Homo sapiens), Q8NF91-1 C8774S

effect of a mutation on the interaction [5]: disrupting interaction strength
Substance: Nesprin-2 (Homo sapiens), Q8WXH0 Y6878A

Further lines, the substance ahead of its results:

Substance: Nesprin-2 (Homo sapiens), Q8WXH0 L6876A
effect of a mutation on the interaction [5]: disrupting interaction strength

Substance: Nesprin-2 (Homo sapiens), Q8WXH0 P6883A
effect of a mutation on the interaction [5]: disrupting interaction strength

Substance: Nesprin-2 (Homo sapiens), Q8WXH0-1 C6862S
effect of a mutation on the interaction [6]: disrupting interaction strength
effect of a mutation on the interaction [7]: disrupting interaction strength
